Results as given in paper PMC3875231 (Nature, 2013).

Target: MalK, ATPase subunit of the maltose transporter (E. coli, UniProt P68187 1-371)
Test: crystal structure

MalK, ATPase subunit of the maltose transporter, sequence (P68187 whole entry): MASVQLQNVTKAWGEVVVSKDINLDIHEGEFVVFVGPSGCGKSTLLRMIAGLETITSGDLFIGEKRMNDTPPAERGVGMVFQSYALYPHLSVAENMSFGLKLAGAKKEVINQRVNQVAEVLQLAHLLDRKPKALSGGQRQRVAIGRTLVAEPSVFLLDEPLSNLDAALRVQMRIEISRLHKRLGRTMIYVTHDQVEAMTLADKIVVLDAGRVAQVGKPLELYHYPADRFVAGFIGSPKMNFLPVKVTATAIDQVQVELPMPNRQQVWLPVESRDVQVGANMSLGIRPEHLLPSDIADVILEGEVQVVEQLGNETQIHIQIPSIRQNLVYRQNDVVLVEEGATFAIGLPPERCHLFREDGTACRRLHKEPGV

B1: glucose-specific enzyme IIA (EIIA^Glc), full-length (natural protein, E. coli, UniProt P69783 1-169, looked up)
chain: MGLFDKLKSLVSDDKKDTGTIEIIAPLSGEIVNIEDVPDVVFAEKIVGDGIAIKPTGNKMVAPVDGTIGKIFETNHAFSIESDSGVELFVHFGIDTVELKGEGFKRIAEEGQRVKVGDTVIEFDLPLLEEKAKSTLTPVVISNMDEIKELIKLSGSVTVGETPVIRIKK
B1: binds.
